Assay results: paper PMC3143649 (The Journal of Biological Chemistry, 2011)
Several values for one entry are separate records, joined by “and”; a condition that tells them apart may be missing. Equal entries are not always repeated. Where two headings read alike, the source gives them in different places.

Columns and labels:
[1] = biological target: the molecule itself
cross-linking = biological target: the molecule itself; experiment: cross-linking
[2] = biological target: Cys-less MtrE C21S (Neisseria gonorrhoeae) (UniProt Q51006); experiment: cross-linking
native MS = biological target: the molecule itself; experiment: native MS
[3] = biological target: the molecule itself; experiment: negative-stain electron microscopy
atomic force microscopy = biological target: the molecule itself; experiment: atomic force microscopy

B1: MtrD (natural protein, Neisseria gonorrhoeae, UniProt Q51073 1-1067, looked up)
chain: MAKFFIDRPIFAWVISIFIIAAGIFGIKSLPVSQYPSVAAPTITLHAIYPGASAQVMEGSVLSVIERNMNGVEGLDYMSTSADSSGSGSVSLTFTPDTDENLAQVEVQNKLSEVLRTLPATVQQYGVTVSKARSNFLMIVMLSSDVQSTEEMNDYAQRNVVPELQRIEGVGQVRLFGAQRAMRIWVDPKKLQNYNLSFADVGSALSAQNIQISAGSIGSLPAVRGQTVTATVTAQGQLGTAEEFGNVILRANTDGSNIYLKDVAKVGLGMEDYSSSTRLNGVNTTGMAVMLSNSGNAMATAKAVKERLAVLEKYFPQGMSWKTPYDTSKFVEISIEKVIHTLIEAMVLVFVVMYLFLQNIRYTLIPTIVVPISLLGGFAFISYMGMSINVLTMFAMILVIGIVVDDAIVVVENVERIMAGEGLPPKEATKKAMGQISGAVIGITAVLISVFVPLAMFSGAAGNIYKQFALTMASSIAFSAFLALTLTPALCATMLKTIPKGHHEEKKGFFGWFNKKFDSWTHGYEGRVAKVLRKTFRMMVVYIGLAVVGVFLFMRLPTSFLPTEDQGFVMVSVQLPAGATKERTDATLAQVTQLAKSIPEIENIITVSGFSFSGSGQNMAMGFAIFKDWNERTASGSDAVAVAGKLTGMMMGTLKDGFGIAVVPPPILELGNGSGLSINLQDRNNTGHTGIAGEGNELIQKMRASGLFDPSTVRAGGLEDSPQLKIDINRAAAAAQGISFADIRTALASALSSSYVSDFPNQGRLQRVMVQADEDARMQPADILNLTVPNKSGVAVPLSTIATVSWENGTEQSVRFNGYPSMKLSASPATGVSTGQAMEAVQKMVDELGGGYSFEWGGQSSEEAKGGSQTLILYGLAVAAVFLVLAALYESWSIPLAVILVIPLGLIGAAAGVTGRNLFEGLLGSVPSFANDIYFQVGFVTVMGLSAKNAILIIEFAKDLQAQGKSAVEAALEAARLRFRPIIMTSFAFILGVVPLYIAAGASSASQRAIGTTVFWGMLVGTLLSVFLVPLFYVVVRKFFKETAHEHEMAVRHASKAGITGSDDKQY
stoichiometry N [1]: 3

B2: NT-MtrC D143C (domain or fragment, Neisseria gonorrhoeae, UniProt P43505 35-412, looked up)
chain: GQPAGREAPAPVVGVVTVHPQTVALTVELPGRLESLRTADVRAQVGGIIQKRLFQEGSYVRAGQPLYQIDSSTYEAGLESARAQLATAQATLAKADADLARYKPLVSACAISKQEYDAAVTAKRSAEASVKAAQAAIKSAGINLNRSRITAPISGFIGQSKVSEGTLLNAGDTTVLATIRQTNPMYVNVTQSASEVMKLRRQIAEGKLLAADGAIAVGIKFDDGTVYPEKGRLLFADPTVDESTGQITLRAAVSNDQNILMPGLYVRVLMDQVAADNAFIVPQQAVTRGAKDTVMIVNAQGGMEPREVTVAQQQGTNWIVTSGLKDGDKVVVEGISIAGMTGAKKVTPKEWAPSENQAAAPQAGVQTASEAKPASEAK
stoichiometry N (cross-linking): 2
stoichiometry N (MtrC per MtrE) [2]: 2

B3: NT-MtrC, the N-terminal truncated (Δ1–34) MtrC (domain or fragment, Neisseria gonorrhoeae, UniProt P43505 35-412, looked up)
chain: GQPAGREAPAPVVGVVTVHPQTVALTVELPGRLESLRTADVRAQVGGIIQKRLFQEGSYVRAGQPLYQIDSSTYEAGLESARAQLATAQATLAKADADLARYKPLVSADAISKQEYDAAVTAKRSAEASVKAAQAAIKSAGINLNRSRITAPISGFIGQSKVSEGTLLNAGDTTVLATIRQTNPMYVNVTQSASEVMKLRRQIAEGKLLAADGAIAVGIKFDDGTVYPEKGRLLFADPTVDESTGQITLRAAVSNDQNILMPGLYVRVLMDQVAADNAFIVPQQAVTRGAKDTVMIVNAQGGMEPREVTVAQQQGTNWIVTSGLKDGDKVVVEGISIAGMTGAKKVTPKEWAPSENQAAAPQAGVQTASEAKPASEAK
stoichiometry N (native MS): 6 and 5

B4: NT-MtrC E149C (domain or fragment, Neisseria gonorrhoeae, UniProt P43505 35-412, looked up)
chain: GQPAGREAPAPVVGVVTVHPQTVALTVELPGRLESLRTADVRAQVGGIIQKRLFQEGSYVRAGQPLYQIDSSTYEAGLESARAQLATAQATLAKADADLARYKPLVSADAISKQCYDAAVTAKRSAEASVKAAQAAIKSAGINLNRSRITAPISGFIGQSKVSEGTLLNAGDTTVLATIRQTNPMYVNVTQSASEVMKLRRQIAEGKLLAADGAIAVGIKFDDGTVYPEKGRLLFADPTVDESTGQITLRAAVSNDQNILMPGLYVRVLMDQVAADNAFIVPQQAVTRGAKDTVMIVNAQGGMEPREVTVAQQQGTNWIVTSGLKDGDKVVVEGISIAGMTGAKKVTPKEWAPSENQAAAPQAGVQTASEAKPASEAK
stoichiometry N (cross-linking): 2
stoichiometry N (MtrC per MtrE) [2]: 2

B5: MacA (natural protein, E. coli, UniProt P75830 1-371, looked up)
chain: MKKRKTVKKRYVIALVIVIAGLITLWRILNAPVPTYQTLIVRPGDLQQSVLATGKLDALRKVDVGAQVSGQLKTLSVAIGDKVKKDQLLGVIDPEQAENQIKEVEATLMELRAQRQQAEAELKLARVTYSRQQRLAQTKAVSQQDLDTAATEMAVKQAQIGTIDAQIKRNQASLDTAKTNLDYTRIVAPMAGEVTQITTLQGQTVIAAQQAPNILTLADMSAMLVKAQVSEADVIHLKPGQKAWFTVLGDPLTRYEGQIKDVLPTPEKVNDAIFYYARFEVPNPNGLLRLDMTAQVHIQLTDVKNVLTIPLSALGDPVGDNRYKVKLLRNGETREREVTIGARNDTDVEIVKGLEAGDEVVIGEAKPGAAQ
stoichiometry N [3]: 6

B6: MtrC α-helical coiled-coil hairpin domain (domain or fragment, Neisseria gonorrhoeae, UniProt P43505 103-183, looked up)
chain: IDSSTYEAGLESARAQLATAQATLAKADADLARYKPLVSADAISKQEYDAAVTAKRSAEASVKAAQAAIKSAGINLNRSRI
stoichiometry N (atomic force microscopy): 6
stoichiometry N (native MS): 2

B7: MtrE, wild type (natural protein, Neisseria gonorrhoeae, UniProt Q51006 1-467, looked up)
chain: CTMIPQYEQPKVEVAETFQNDTSVSSIRAVDLGWHDYFADPRLQKLIDIALERNTSLRTAVLNSEIYRKQYMIERNNLLPTLAANANGSRQGSLSGGNVSSSYNVGLGAASYELDLFGRVRSSSEAALQGYFASVANRDAAHLSLIATVAKAYFNERYAEEAMSLAQRVLKTREETYNAVRIAVQGRRDFRRRPAPAEALIESAKADYAHAARSREQARNALATLINRPIPEDLPAGLPLDKQFFVEKLPAGLSSEVLLDRPDIRAAEHALKQANANIGAARAAFFPSIRLTGSVGTGSVELGGLFKSGTGVWAFAPSITLPIFTWGTNKANLDVAKLRQQAQIVAYESAVQSAFQDVANALAAREQLDKAYDALSKQSRASKEALRLVGLRYKHGVSGALDLLDAERSSYSAEGAALSAQLTRAENLADLYKALGGGLKRDTQTGK
stoichiometry N [1]: 3
